Reference: the supplement of paper PMC10567573

B1: MYL5 (parent)
chain: DVAGNLDYKALSYVITHGEEKEE

Variants of: B1
Test: protein stability index of a GFP-peptide fusion (GPS, HEK-293T) (PSI 1-6); higher = more stable
Details: c terminus: native
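Note: lentivirally expressed fusions sorted by FACS into six bins by GFP to DsRed ratio, PSI derived from sequencing read proportions per bin multiplied by bin number.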

Variant	protein stability index
DVAGNLDYKALSYVITHIEEKEE [G18I]	2.42
DVAGNLDYKALSYVITHMEEKEE [G18M]	2.07
DVAGNLDYKALSYVITHPEEKEE [G18P]	1.12
DVAGNLDYKALSYVITHTEEKEE [G18T]	1.78
DVAGNLDYKALSYVITHFEEKEE [G18F]	1.88
DVAGNLDYKALSYVITHCEEKEE [G18C]	1.68
DVAGNLDYKALSYVITHEEEKEE [G18E]	2.1
DVAGNLDYKALSYVITHQEEKEE [G18Q]	1.94
DVAGNLDYKALSYVITHREEKEE [G18R]	2.43
DVAGNLDYKALSLVITHGEEKEE [Y13L]	2.01
DVAGNLDYKALSHVITHGEEKEE [Y13H]	2.12
DVAGNLDYKALSIVITHGEEKEE [Y13I]	2.14
DVAGNLDYKALSCVITHGEEKEE [Y13C]	2.63
DVAGNLDYKALSVVITHGEEKEE [Y13V]	1.75
DVAGNLDYKALSFVITHGEEKEE [Y13F]	1.8
DVAGFLDYKALSYVITHGEEKEE [N5F]	1.87
DVAGELDYKALSYVITHGEEKEE [N5E]	2.43
DVAGTLDYKALSYVITHGEEKEE [N5T]	2.29
DVAGILDYKALSYVITHGEEKEE [N5I]	2.54
DVAGDLDYKALSYVITHGEEKEE [N5D]	2.69
DVAGLLDYKALSYVITHGEEKEE [N5L]	3.25
DVAGRLDYKALSYVITHGEEKEE [N5R]	1.67
DVAGKLDYKALSYVITHGEEKEE [N5K]	1.97
DVAGNLDYKALNYVITHGEEKEE [S12N]	2.77
DVAGNLDYKALQYVITHGEEKEE [S12Q]	1.7

Variant	protein stability index
DVAGNLDYKALGYVITHGEEKEE [S12G]	2.54
DVAGNLDYKALLYVITHGEEKEE [S12L]	1.77
DVAGNLDYKALPYVITHGEEKEE [S12P]	2.46
DVAGNLDYKALRYVITHGEEKEE [S12R]	1.99
DVAGNLDYKALTYVITHGEEKEE [S12T]	3.01
DVAGNLDYKALSYVITHGEEKEF [E23F]	2.69
DVAGNLDYKALSYVITHGEEKET [E23T]	4.54
DVAGNLDYKALSYVITHGEEKED [E23D]	4.94
DVAGNLDYKALSYVITHGEEKEM [E23M]	2.22
DVAGNLDYKALSYVITHGEEKEG [E23G]	4.37
DVAGNLDYKALSYVITHGEEKEC [E23C]	4.24
DVAGNLDYKALSYVITHGEEKEY [E23Y]	3.97
DVAGNLDYKALSYVITHGEEKEP [E23P]	2.26
DVAGNLDYKALSYVITHGEEQEE [K21Q]	4.06
DVAGNLDYKALSYVITHGEEVEE [K21V]	1.54
DVAGNLDYKALSYVITHGEEHEE [K21H]	1.6
DVAGNLDYKALSYVITHGEEAEE [K21A]	2.46
DVAGNLDYKALSYVITHGEEEEE [K21E]	3.8
DVAGNLDYKALSYVITHGEEPEE [K21P]	1.72
DVAGNLDYKALSYVITHGEEDEE [K21D]	4.35
DVAGNLDYKALSYVITHGEESEE [K21S]	1.52
DVAGNLDYKALSYVITHGEEFEE [K21F]	1.37
DVAGNLDYKALSYVITHGEEGEE [K21G]	3.52
DVAGNLDYKALSYVITHGEEMEE [K21M]	1.98
DVAGNLDYKALSYVITHGEEWEE [K21W]	1.95

Variant	protein stability index
DVAGNLDYKALSYVITHGEEYEE [K21Y]	1.79
DVAGNLDYKALSYVITHGEETEE [K21T]	2.05
DSAGNLDYKALSYVITHGEEKEE [V2S]	1.82
DFAGNLDYKALSYVITHGEEKEE [V2F]	1.19
DPAGNLDYKALSYVITHGEEKEE [V2P]	1.67
DIAGNLDYKALSYVITHGEEKEE [V2I]	2.61
DYAGNLDYKALSYVITHGEEKEE [V2Y]	4.5
DVAGNHDYKALSYVITHGEEKEE [L6H]	2.28
DVAGNKDYKALSYVITHGEEKEE [L6K]	2.06
DVAGNMDYKALSYVITHGEEKEE [L6M]	1.76
DVAGNADYKALSYVITHGEEKEE [L6A]	2.55
DVAGNQDYKALSYVITHGEEKEE [L6Q]	1.93
DVAGNNDYKALSYVITHGEEKEE [L6N]	3.84
DVAGNFDYKALSYVITHGEEKEE [L6F]	2.82
DVAGNVDYKALSYVITHGEEKEE [L6V]	1.36
DVAGNWDYKALSYVITHGEEKEE [L6W]	1.72
DVAGNDDYKALSYVITHGEEKEE [L6D]	2.06
DVAGNLDYKALSYVITHGNEKEE [E19N]	3.3
DVAGNLDYKALSYVITHGKEKEE [E19K]	3.27
DVAGNLDYKALSYVITHGTEKEE [E19T]	3.2
DVAGNLDQKALSYVITHGEEKEE [Y8Q]	1.98
DVAGNLDAKALSYVITHGEEKEE [Y8A]	2.1
DVAGNLDVKALSYVITHGEEKEE [Y8V]	2.62
DVAGNLDNKALSYVITHGEEKEE [Y8N]	1.56
DVAGNLDRKALSYVITHGEEKEE [Y8R]	1.75

Variant	protein stability index
DVAGNLDPKALSYVITHGEEKEE [Y8P]	2.05
DVAGNLDHKALSYVITHGEEKEE [Y8H]	1.48
DVAGNLDKKALSYVITHGEEKEE [Y8K]	1.39
DVAGNLDYVALSYVITHGEEKEE [K9V]	2.67
DVAGNLDYAALSYVITHGEEKEE [K9A]	2.29
DVAGNLDYHALSYVITHGEEKEE [K9H]	1.53
DVAGNLDYSALSYVITHGEEKEE [K9S]	1.56
DVAGNLDYMALSYVITHGEEKEE [K9M]	1.6
DVAGNLDYLALSYVITHGEEKEE [K9L]	2.75
DVAGNLDYGALSYVITHGEEKEE [K9G]	1.98
DVAGNLDYNALSYVITHGEEKEE [K9N]	2.01
DVAGNLDYDALSYVITHGEEKEE [K9D]	2.57
PVAGNLDYKALSYVITHGEEKEE [D1P]	1.66
MVAGNLDYKALSYVITHGEEKEE [D1M]	1.65
CVAGNLDYKALSYVITHGEEKEE [D1C]	2.21
IVAGNLDYKALSYVITHGEEKEE [D1I]	1.97
FVAGNLDYKALSYVITHGEEKEE [D1F]	2.11
QVAGNLDYKALSYVITHGEEKEE [D1Q]	2.1
AVAGNLDYKALSYVITHGEEKEE [D1A]	2.07
VVAGNLDYKALSYVITHGEEKEE [D1V]	1.66
SVAGNLDYKALSYVITHGEEKEE [D1S]	2.46
RVAGNLDYKALSYVITHGEEKEE [D1R]	2.74
